Assay results reported in article PMC5584586.
pKd: −log10 of the molar value.

Experiments:
Assay in all cases: SPR
[1] = target: human FcγRI, HIS-tagged (human) (UniProt P12314)
[2] = target: human FcγRIIA 167R, HIS-tagged (human) (UniProt P12318)
[3] = target: human FcγRIIIA 176F, HIS-tagged (human) (UniProt P08637)
[4] = target: human FcγRIIIA 176V, HIS-tagged (human) (UniProt P08637)
[5] = target: human FcγRIIB, HIS-tagged (human) (UniProt P31994)
[6] = target: human FcγRIIA 167H, HIS-tagged (human) (UniProt P12318)

Sequence of UniProt P31994 (P31994 43-310): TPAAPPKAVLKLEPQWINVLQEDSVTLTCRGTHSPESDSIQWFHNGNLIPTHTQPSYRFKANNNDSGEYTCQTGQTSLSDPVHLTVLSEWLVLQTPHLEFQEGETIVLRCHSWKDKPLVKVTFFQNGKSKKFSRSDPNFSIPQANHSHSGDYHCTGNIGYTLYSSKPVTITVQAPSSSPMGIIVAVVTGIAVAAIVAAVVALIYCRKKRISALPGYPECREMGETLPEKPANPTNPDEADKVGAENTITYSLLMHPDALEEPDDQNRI
Sequence of UniProt P12314 (P12314 16-374): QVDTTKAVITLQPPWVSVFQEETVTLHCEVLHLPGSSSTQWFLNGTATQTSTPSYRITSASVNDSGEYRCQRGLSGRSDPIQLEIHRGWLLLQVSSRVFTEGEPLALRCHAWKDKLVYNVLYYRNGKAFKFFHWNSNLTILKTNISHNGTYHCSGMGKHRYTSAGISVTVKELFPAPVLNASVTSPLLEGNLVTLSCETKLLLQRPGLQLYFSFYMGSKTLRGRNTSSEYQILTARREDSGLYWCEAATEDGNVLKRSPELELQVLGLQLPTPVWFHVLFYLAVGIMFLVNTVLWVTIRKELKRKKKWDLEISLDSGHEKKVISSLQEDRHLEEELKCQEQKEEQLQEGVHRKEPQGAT

| pKd [1] | pKd [2] | pKd [3] | pKd [4] | pKd [5] | pKd [6] | Substance |
| --- | --- | --- | --- | --- | --- | --- |
| 7.54 | < 5.00 | 5.65 | 5.98 |  |  | TA99 hIgG1 N297D/S298A/K326I/A327Y/L328G, aglycosylated (antibody) |
| 8.30 | 5.56 | 5.74 | 5.98 |  |  | TA99 hIgG1 N297D/S298T/K326I/A327Y/L328G, aglycosylated (antibody) |
|  |  | 5.77 | 5.75 |  |  | TA99 hIgG1 N297H/S298A/K326I/A327Y/L328G, aglycosylated (antibody) |
| 6.53 |  |  |  |  |  | TA99 hIgG1 N297Q, aglycosylated (antibody) |
|  | < 5.00 |  |  | 5.19 | 6.00 | TA99 hIgG1 S298G/T299A, aglycosylated (antibody) |
| 6.61 | 5.60 | 5.91 | 6.34 | 5.68 | 6.22 | TA99 hIgG1 T299A/K326I/A327Y/L328G, aglycosylated (antibody) |
|  | 5.10 | 5.34 | 5.77 | 5.45 | 5.94 | TA99 hIgG1 wild-type, glycosylated (from UniProt P01857 1-399) (antibody) |
|  |  |  | 6.46 | 5.19 | 5.96 | human IgG1 used as a control on Biacore (antibody) |
